The values that follow come from patent US20050181479A1 (AstraZeneca / MedImmune, published 2005).

This assay deals with T1, human EphA2-Fc (human, UniProt P29317 25-534, limits assumed, biotinylated in the capture ELISA (sites not given)).
T1 construct: also called biotinylated human EphA2-Fc; human receptor tyrosine kinase EphA2; not shown: Fc portion; species, isotype and any linker are not described
Nature of the assay: EphA2-specific capture ELISA: Fab from E. coli samples captured on anti-human Fab or anti-Fd, detected with biotinylated human EphA2-Fc. How it is done:
Capture ELISA: An EphA2-specific capture ELISA was carried out as follows: briefly, individual wells of a 96-well Maxisorp Immunoplate were coated with 20 or 2000 ng of a goat anti-human Fab antibody (Cappel, Calif.) or of a sheep anti-human Fd (BioDesign, ME), blocked with 3% BSA/PBS for 2 h at 37° C. and then incubated with 75 μl of the various samples (supernatants, periplasmic extracts and whole cell extracts of G5 Fab, 12G3 Fab, irrelevant Fab and variants thereof) for 2 hours at room temperature. 300 ng/well of biotinylated human EphA2-Fc was then added for 1.5 hours at room temperature. This was followed by incubation with a neutravidin-horseradish peroxidase (HRP) conjugate for 40 min at room temperature. HRP activity was detected with tetra methyl benzidine (TMB) substrate and the reaction quenched with 0.2 M H₂SO₄. Plates were read at 450 nm.

T1 sequence (P29317 25-534 limits assumed): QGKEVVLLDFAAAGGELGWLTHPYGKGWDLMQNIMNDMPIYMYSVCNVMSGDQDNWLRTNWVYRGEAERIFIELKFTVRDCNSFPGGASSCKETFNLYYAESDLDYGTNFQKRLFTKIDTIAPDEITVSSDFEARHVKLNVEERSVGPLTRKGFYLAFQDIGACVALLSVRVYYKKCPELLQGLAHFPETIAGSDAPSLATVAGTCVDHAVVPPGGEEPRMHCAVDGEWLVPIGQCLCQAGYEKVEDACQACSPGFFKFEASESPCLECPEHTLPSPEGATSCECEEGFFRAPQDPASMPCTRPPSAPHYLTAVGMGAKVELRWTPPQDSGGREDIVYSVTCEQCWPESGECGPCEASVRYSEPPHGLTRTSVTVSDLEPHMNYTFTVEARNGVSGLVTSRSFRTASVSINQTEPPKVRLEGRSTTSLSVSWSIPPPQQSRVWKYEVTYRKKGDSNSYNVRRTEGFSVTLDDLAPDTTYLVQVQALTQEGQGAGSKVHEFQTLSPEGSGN

B1: G5 Fab (Fab, V domains shown)
VH: QMQLVQSGPEVKKPGTSVKVSCKASGFTFTDYSMNWVRQARGQRLEWIGFIRNKANDYTTEYSASVKGRVTITRDMSTSTAYMELSSLRSEDTAVYYCARYPRYHAMDSWGQGTSVTVSS
VL: DIQMTQSPSSLSASVGDRVTITCRASQSISNNLHWYQQKPGKAPKLLIKYVFQSISGVPSRFSGSGSGTDFTFTISSLQPEDFATYYCQQSNSWPLTFGGGTKVEIK
notes: Fab expressed in E. coli TG1 from an M13-based phage vector and tested as unpurified supernatant, periplasmic extract or whole cell extract; They are kept as one molecule, since the leader is not part of the mature Fab; also called mAb G5; anti-EphA2 Fab
For the molecule B1, the binding result is recorded as “binds”.

B2: 12G3 Fab (Fab, V domains shown)
VH: QMQLVQSGPEVKKPGTSVKVSCKASGFTFDDYSMNWVRQARGQRLEWIGFIRNKANDYTTEYSASVKGRVTITRDMSTSTAYMELSSLRSEDTAVYYCARYPRHHAMDSWGQGTSVTVSS
VL: DIQMTQSPSSLSASVGDRVTITCRASQSISNNLHWYQQKPGKAPKLLIKYAFQSISGVPSRFSGSGSGTDFTFTISSLQPEDFATYYCQQANSWPLTFGGGTKVEIK
notes: Fab expressed in E. coli TG1 from an M13-based phage vector and tested as unpurified supernatant, periplasmic extract or whole cell extract; They are kept as one molecule, since the leader is not part of the mature Fab; also called mAb12G3; anti-EphA2 Fab
Regarding B2, the binding result is “binds”.
